Where two headings read alike, the source gives them in different places.
Tests used:
Assay in all cases: co-sedimentation
F-actin [1] = target: T1, F-actin (Saccharomyces cerevisiae, UniProt P60010)
actin = actin (Saccharomyces cerevisiae, UniProt P60010)
F-actin [2] = target: T1, F-actin; remark: listed apart in the source

B1: Vinculin tail (VT) 881-1066 (protein)
chain: KDEEFPEQKAGEAINQPMMMAARQLHDEARKWSSKPVTVINEAAEAGVDIDEEDDADVEFSLPSDIEDDYEPELLLMPTNQPVNQPILAAAQSLHREATKWSSKGNDIIAAAKRMALLMAEMSRLVRGGSGNKRALIQCAKDIAKASDEVTRLAKEVAKQCTDKRIRTNLLQVCERIPTISTQLKI
Q: Which Kd (F-actin [1]) does the source give for B1 here?
A: 1.31 µM

Q: What about the Kd (actin) of the same binder?
A: 0.37 µM

Q: And the Kd (F-actin [2])?
A: 1.48 µM

Reference: publication PMC4418518 (2015)
